Our source for the ka, kd and Kd values is US20100093076A1, “SOLUBLE IL-27 RECEPTOR” (priority 2006, published 2010).

In experiment [1] the target is T1, human ligand (single-chain IL27: EBI3 linked to IL-27 p28) (Homo sapiens, UniProt Q14213+Q8NEV9).
T1 construct: purchased R&D Systems
T1 sequence (Q14213+Q8NEV9 with tags, fused parts or gaps): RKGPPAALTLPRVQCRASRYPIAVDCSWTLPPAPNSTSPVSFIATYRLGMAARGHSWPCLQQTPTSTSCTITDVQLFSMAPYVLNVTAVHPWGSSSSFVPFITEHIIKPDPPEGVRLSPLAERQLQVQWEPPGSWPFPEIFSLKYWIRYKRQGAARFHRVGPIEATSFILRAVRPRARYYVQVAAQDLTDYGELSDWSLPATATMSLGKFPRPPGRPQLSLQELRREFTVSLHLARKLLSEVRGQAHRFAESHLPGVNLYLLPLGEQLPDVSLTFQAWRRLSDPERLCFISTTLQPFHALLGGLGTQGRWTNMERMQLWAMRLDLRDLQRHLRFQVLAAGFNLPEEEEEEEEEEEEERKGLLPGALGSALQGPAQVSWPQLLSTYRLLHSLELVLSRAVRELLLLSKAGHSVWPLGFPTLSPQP
Nature of the experiment: Surface plasmon resonance (BIACORE 3000) kinetic rate and affinity constants. The experiment is classed as binding. Conditions: SPR. On the procedure: (§1) Kinetic rate and affinity constant values for the mouse (IL27RAm(mFc1), Example 1) and human (IL27RA-Fc5, Example 2) soluble receptors were obtained by surface plasmon resonance (SPR) using an automated instrument (BIACORE 3000; Biacore International AB, Uppsala, Sweden). The mouse soluble receptor was tested against mouse ligand (lot A1418F), and the human soluble receptor was tested against both mouse (A1426F) and human (A1534F) ligands. For determination of the kinetic rate constants for the receptor-ligand interactions, the gp130 molecule was not included as part of the receptor complex.
(§2) The IL27 ligands used in this study were single-chain molecules comprising EBI3 connected by its C-terminus to the N-terminus of IL-27 p28 via a polypeptide linker. (R&D Systems) Each of the ligands included an amino-terminal peptide tag.
(§3) For the mouse IL27RA study, the soluble receptor was captured onto the chip surface by an isotype-specific anti-mouse Fc antibody (obtained from Jackson ImmunoResearch Laboratories, Inc., West Grove, Pa.) covalently immobilized to the chip (BIACORE CM5 chip) using the standard amine coupling protocol specified by the instrument manufacturer. For the human IL27RA studies, the soluble receptor was directly and covalently immobilized to the chip via the amine coupling protocol. In all studies, ligand was injected over the active (receptor-bound) surface at varying concentrations to obtain a series of binding curves.
(§4) Experimental conditions were optimized for determination of kinetic rate constant values. The molecular densities of the soluble receptor protein loaded onto the chip surface were targeted to obtain maximum IL27 binding levels (Rmax) of ≦20 RU. The analyte (ligand) was injected over the receptor surface at a flow rate of […] at a concentration range of approximately 0.05 to 10 nM, allowing for an association phase of 3 minutes and a dissociation phase of 10 minutes. The mouse soluble receptor surface was regenerated with two 30-second injections at 50 μL/minute of glycine, pH 2.0. The human soluble receptor surface was similarly regenerated with a single 30-second injection.
(§5) All data were assessed using software provided with the instrument (BIACORE Evaluation software v. 3.2). The binding curves were globally fitted to a 1:1 binding model corrected for mass transport limitation resulting from the fast on-rate values (ka) obtained. Statistical analysis of the fits of the experimental binding curves versus theoretical curves gave standard error values for ka and kd of less than 2%, and chi^2 values of less than 2% of Rmax for all interactions tested, providing reasonable confidence in the kinetic rate constant values obtained.
On the technique in general: SPR reads the build-up and loss of mass on a sensor chip optically.

Experiment [2] deals with T2, mouse ligand (single-chain IL27: EBI3 linked to IL-27 p28) (Mus musculus, UniProt O35228+Q8K3I6).
T2 construct: purchased R&D Systems
T2 sequence (O35228+Q8K3I6 with tags, fused parts or gaps): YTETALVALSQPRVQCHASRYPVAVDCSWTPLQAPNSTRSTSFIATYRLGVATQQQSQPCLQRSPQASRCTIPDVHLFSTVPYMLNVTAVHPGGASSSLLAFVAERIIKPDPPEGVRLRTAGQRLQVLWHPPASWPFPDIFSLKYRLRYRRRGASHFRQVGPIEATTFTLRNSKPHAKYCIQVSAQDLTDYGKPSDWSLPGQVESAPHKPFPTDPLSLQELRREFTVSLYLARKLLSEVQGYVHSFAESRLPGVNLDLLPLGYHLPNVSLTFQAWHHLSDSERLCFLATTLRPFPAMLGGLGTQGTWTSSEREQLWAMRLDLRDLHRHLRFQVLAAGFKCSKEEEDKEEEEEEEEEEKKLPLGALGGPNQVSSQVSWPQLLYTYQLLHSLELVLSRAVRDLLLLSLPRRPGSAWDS
The description is as above. The experiment is classed as binding. Conditions: SPR. On the procedure:
as §1, §2, §3, §4, §5

By Kd is commonly meant the concentration at which binding is half-saturated. Consider “human IL-27RA-Fc5: Extracellular domain of human IL27RA (amino acids 1 to 512 of SEQ ID NO:3) fused to Fc5, effector minus human gamma1 Fc; SEQ ID NO:16”, for which the results for the ka in experiment [1] (1:1 binding model) and in experiment [2] (1:1 binding model) were 1e+07 M⁻¹ s⁻¹ and 8.1e+06 M⁻¹ s⁻¹, respectively. The figures for the kd in experiment [1] (1:1 binding model) and in experiment [2] (1:1 binding model) were 0.0019 s⁻¹ and 0.0018 s⁻¹, respectively. Also, the Kd in experiment [1] (Kd=kd/ka) turned out to be 0.19 nM; in experiment [2] (Kd=kd/ka) it was 0.22 nM.
